Like-named read-outs stand apart in the source and are kept apart here.
Key:
Format in all cases: biochemical
[1] = system: Trichoderma reesei cellulase composition; settings: for heterocyclic compound effect(no GH61): milled washed PCS
[2] = system: Trichoderma reesei cellulase composition; settings: for heterocyclic compound effect(no GH61): milled unwashed PCS, compound 5 mM; for Percent conversion of milled unwashed PCS: GH61 present (0.2 mg/g cellulose); for Percent conversion of milled unwashed PCS / Enhancement of hydrolysis of milled unwashed PCS by the presence of GH61 polypeptide: no heterocyclic compound
[3] = system: Trichoderma reesei cellulase composition; test: Hydrolysis of AVICEL (microcrystalline cellulose) by the T. reesei cellulase composition, with/without GH61 polypeptide or heterocyclic compound; settings: for heterocyclic compound effect(no GH61) (ratio of percent conversion with compound to without) / heterocyclic compound effect(no GH61): AVICEL; for heterocyclic compound effect(no GH61) (ratio of percent conversion with compound to without): compound 5 mM, 1, 3 and 7 days; for heterocyclic compound effect(no GH61): compound 10 mM, 1 and 3 days; for Percent conversion of AVICEL: no heterocyclic compound
[4] = molecular target: Aspergillus fumigatus GH61B polypeptide (Aspergillus fumigatus, UniProt Q4WP32); test: Effect of ascorbic acid on A. fumigatus GH61B polypeptide during hydrolysis of AVICEL; settings: ascorbic acid 5 mM, A. fumigatus GH61B 0.4 or 2 mg per gram cellulose, 1, 3 and 7 days
[5] = molecular target: Trichoderma reesei GH61B polypeptide (Trichoderma reesei, UniProt Q7Z9M7); test: Effect of ascorbic acid on T. reesei GH61B polypeptide during hydrolysis of AVICEL; settings: ascorbic acid 5 mM
[6] = system: Talaromyces stipitatus GH61A polypeptide; settings: AVICEL; ascorbic acid 5 mM; T. stipitatus GH61A 0.4 or 2 mg per gram cellulose; 1, 3 and 7 days
[7] = system: Thielavia terrestris GH61E polypeptide; test: Effect of ascorbic acid on T. terrestris GH61E polypeptide during hydrolysis of AVICEL; settings: ascorbic acid 5 mM, T. terrestris GH61E 0.4 or 2 mg per gram cellulose, 1, 3 and 7 days
[8] = system: Penicillium pinophilum GH61A polypeptide; settings: AVICEL; ascorbic acid 5 mM; P. pinophilum GH61A 0.4 or 2 mg per gram cellulose; 1, 3 and 7 days
[9] = cellulase 2 mg per g cellulose, 1, 3 and 7 days
[10] = compound 10 mM, cellulase 2 mg per g cellulose, especially at day 3

Chain of Aspergillus fumigatus GH61B polypeptide (Q4WP32 22-250): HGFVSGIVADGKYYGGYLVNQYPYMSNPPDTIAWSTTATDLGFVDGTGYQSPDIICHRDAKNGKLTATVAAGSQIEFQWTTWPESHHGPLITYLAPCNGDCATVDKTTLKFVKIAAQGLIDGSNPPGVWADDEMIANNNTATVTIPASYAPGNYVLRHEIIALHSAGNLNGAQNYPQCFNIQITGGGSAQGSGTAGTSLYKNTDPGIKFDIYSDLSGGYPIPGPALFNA

O=C(CO)c1ccccc1 [2-hydroxyacetophenone]
heterocyclic compound effect(no GH61) ([1]; compound 5 mM, 1, 3 and 7 days): slightly decreased | heterocyclic compound effect(no GH61) [2, 9]: greater than 1 | heterocyclic compound effect(no GH61) (ratio of percent conversion with compound to without) [3]: less than 1 | heterocyclic compound effect(no GH61) [3]: significantly decreased the day 3 hydrolysis

CC1=C(O)C(=O)CO1 [4-hydroxy-5-methyl-3-furanone]
heterocyclic compound effect(no GH61) [1, 10]: < 1

O=C1OC(C(O)CO)C(O)=C1O (stereo not shown) [ascorbic acid, (1,2-dihydroxyethyl)-3,4-dihydroxyfuran-2(5H)-one]
heterocyclic compound effect(no GH61) ([1]; compound 5 mM, 1, 3 and 7 days): slightly decreased | GH61 effect in the presence of heterocyclic compound [4]: greater than 1 | heterocyclic compound effect(+GH61) [4]: increased | heterocyclic compound effect(no GH61) [2, 9]: greater than 1 | heterocyclic compound effect(+GH61) ([5]; T. reesei GH61B 2 mg per g cellulose): increased | GH61 effect in the presence of heterocyclic compound ([5]; T. reesei GH61B at high level (2 mg per g cellulose)): greater than 1 | GH61 effect in the presence of heterocyclic compound [6]: greater than 1 | heterocyclic compound effect(+GH61) [6]: increased | GH61 effect in the presence of heterocyclic compound [7]: greater than 1 | heterocyclic compound effect(+GH61) [7]: increased | GH61 effect in the presence of heterocyclic compound [8]: greater than 1 | heterocyclic compound effect(+GH61) [8]: increased

O=C1OC(C(O)CO)C(=O)C1=O (stereo not shown) [dehydroascorbic acid, [1,2-dihydroxyethyl]furan-2,3,4(5H)-trione]
heterocyclic compound effect(no GH61) ([1]; compound 5 mM, 1, 3 and 7 days): very slightly decreased | heterocyclic compound effect(no GH61) [1, 10]: < 1 | heterocyclic compound effect(no GH61) ([2]; mid to late stages of hydrolysis): greater than 1 | heterocyclic compound effect(no GH61) (ratio of percent conversion with compound to without) [3]: very slightly decreased | heterocyclic compound effect(no GH61) [3]: very slightly decreased the day 3 hydrolysis

B1: Thielavia terrestris GH61E polypeptide: GH61E polypeptide having cellulolytic enhancing activity (SEQ ID NO: 8), recombinantly prepared using Trichoderma reesei RutC30 as a host (protein, listed as Thielavia terrestris)
chain: MLANGAIVFLAAALGVSGHYTWPRVNDGADWQQVRKADNWQDNGYVGDVTSPQIRCFQATPSPAPSVLNTTAGSTVTYWANPDVYHPGPVQFYMARVPDGEDINSWNGDGAVWFKVYEDHPTFGAQLTWPSTGKSSFAVPIPPCIKSGYYLLRAEQIGLHVAQSVGGAQFYISCAQLSVTGGGSTEPPNKVAFPGAYSATDPGILINIYYPVPTSYQNPGPAVFSC
Percent conversion of AVICEL ([3]; 1 day, GH61 present, one experiment, 19.5±0.2% in the absence of GH61): 20.5±0.5% | Percent conversion of AVICEL ([3]; 3 days, GH61 present, one experiment, 27±1% in the absence of GH61): 27±1% | Percent conversion of AVICEL ([3]; 7 days, GH61 present, one experiment, 43±1% in the absence of GH61): 43.0±0.3%

B2: T. aurantiacus GH61A polypeptide: GH61A polypeptide having cellulolytic enhancing activity (SEQ ID NO: 14), recombinantly prepared using Aspergillus oryzae JaL250 as a host (protein, listed as Thermoascus aurantiacus)
chain: MSFSKIIATAGVLASASLVAGHGFVQNIVIDGKYYGGYLVNQYPYMSNPPEVIAWSTTATDLGFVDGTGYQTPDIICHRGAKPGALTAPVSPGGTVELQWTPWPDSHHGPVINYLAPCNGDCSTVDKTQLEFFKIAESGLINDDNPPGIWASDNLIAANNSWTVTIPTTIAPGNYVLRHEIIALHSAQNQDGAQNYPQCINLQVTGGGSDNPAGTLGTALYHDTDPGILINIYQKLSSYIIPGPPLYTG
Enhancement of hydrolysis of milled washed PCS by the presence of GH61 polypeptide ([1]; 1 day, no heterocyclic compound): 14% | Enhancement of hydrolysis of milled washed PCS by the presence of GH61 polypeptide ([1]; 3 days, no heterocyclic compound): 31% | Enhancement of hydrolysis of milled washed PCS by the presence of GH61 polypeptide ([1]; 7 days, no heterocyclic compound): 31% | Percent conversion of milled washed PCS ([1]; day 1, GH61 present (0.4 mg per g cellulose), cellulase 4 mg per g cellulose, no heterocyclic compound, 37±1% in the absence of GH61): 42±1% | Percent conversion of milled washed PCS ([1]; day 1, cellulase 2 mg per g cellulose, GH61 at 10% (w/w) of the cellulase composition, 24±0.7% in the absence of GH61): 27±0.8% | Percent conversion of milled washed PCS ([1]; day 1, cellulase 2 mg per g cellulose, GH61 at 25% (w/w) of the cellulase composition, 24±0.7% in the absence of GH61): 27±0.8% | Percent conversion of milled washed PCS ([1]; day 1, cellulase 2 mg per g cellulose, GH61 at 50% (w/w) of the cellulase composition, 24±0.7% in the absence of GH61): 27±0.8% | Percent conversion of milled washed PCS ([1]; day 3, GH61 present (0.4 mg per g cellulose), cellulase 4 mg per g cellulose, no heterocyclic compound, 55±1% in the absence of GH61): 72±1% | Percent conversion of milled washed PCS ([1]; day 3, cellulase 2 mg per g cellulose, GH61 at 10% (w/w) of the cellulase composition, 41±2% in the absence of GH61): 55±3% | Percent conversion of milled washed PCS ([1]; day 3, cellulase 2 mg per g cellulose, GH61 at 25% (w/w) of the cellulase composition, 41±2% in the absence of GH61): 57±0.5% | Percent conversion of milled washed PCS ([1]; day 3, cellulase 2 mg per g cellulose, GH61 at 50% (w/w) of the cellulase composition, 41±2% in the absence of GH61): 59±2% | Percent conversion of milled washed PCS ([1]; day 7, GH61 present (0.4 mg per g cellulose), cellulase 4 mg per g cellulose, no heterocyclic compound, 67±0.2% in the absence of GH61): 88±2% | Percent conversion of milled unwashed PCS ([2]; 1 day, cellulase 2 mg per g cellulose, 18.7±0.1% in the absence of GH61): 22.2±0.1% | Enhancement of hydrolysis of milled unwashed PCS by the presence of GH61 polypeptide ([2]; 1 day): 19% | Percent conversion of milled unwashed PCS ([2]; 3 days, cellulase 2 mg per g cellulose, 28.2±0.3% in the absence of GH61): 34.3±0.3% | Enhancement of hydrolysis of milled unwashed PCS by the presence of GH61 polypeptide ([2]; 3 days): 21% | Percent conversion of milled unwashed PCS ([2]; 7 days, cellulase 2 mg per g cellulose, 36.9±0.3% in the absence of GH61): 44.0±0.2% | Enhancement of hydrolysis of milled unwashed PCS by the presence of GH61 polypeptide ([2]; 7 days): 19% | Percent conversion of AVICEL ([3]; 1 day, GH61 polypeptide present (0.4 mg per g cellulose), 16±1% in the absence of GH61): 16±1% | Percent conversion of AVICEL ([3]; 3 days, GH61 polypeptide present (0.4 mg per g cellulose), 31±4% in the absence of GH61): 30±4% | Percent conversion of AVICEL ([3]; 7 days, GH61 polypeptide present (0.4 mg per g cellulose), 45±3% in the absence of GH61): 45±4%

B3: Trichoderma reesei GH61B polypeptide: GH61B polypeptide having cellulolytic enhancing activity (SEQ ID NO: 16), recombinantly prepared using Aspergillus oryzae JaL250 as a host (protein, listed as Trichoderma reesei)
chain: MKSCAILAALGCLAGSVLGHGQVQNFTINGQYNQGFILDYYYQKQNTGHFPNVAGWYAEDLDLGFISPDQYTTPDIVCHKNAAPGAISATAAAGSNIVFQWGPGVWPHPYGPIVTYVVECSGSCTTVNKNNLRWVKIQEAGINYNTQVWAQQDLINQGNKWTVKIPSSLRPGNYVFRHELLAAHGASSANGMQNYPQCVNIAVTGSGTKALPAGTPATQLYKPTDPGILFNPYTTITSYTIPGPALWQG
Percent conversion of AVICEL ([3]; 1 day, GH61 present, one experiment, 13.7±0.6% in the absence of GH61): 13.5±0.4% | Percent conversion of AVICEL ([3]; 3 days, GH61 present, one experiment, 28.6±0.4% in the absence of GH61): 29±2% | Percent conversion of AVICEL ([3]; 7 days, GH61 present, one experiment, 44±1% in the absence of GH61): 44±2%
